Reference: patent US10941182 (Amgen, dated 2021)
Starred links: 1 amine or outer side, 2 acyl side, 3 side chain; linkers in the order of their positions; H or OH if unused. Non-standard residues stand in square brackets, D forms with d. *: point of attachment. AC4Abu = α-carboxy-4-aminobutyric acid, O=C(C(CCN[*:1])C(=O)[*:3])[*:2]; Oic = O=C(O)[C@@H]1C[C@@H]2CCCC[C@@H]2N1; Phe(4-Cl) = N[C@@H](Cc1ccc(Cl)cc1)C(=O)O; γGlu = O=C(O)[C@H](CCC(=O)[*:2])N[*:1]; 1Nal = N[C@@H](Cc1cccc2ccccc12)C(=O)O; 2Nal = N[C@@H](Cc1ccc2ccccc2c1)C(=O)O; NMeR = CN[C@@H](CCCNC(=N)N)C(=O)O; Tridecanoyl = CCCCCCCCCCCCC(=O)*; Gly(N-CH2CH2OH) = O=C(O)CNCCO; Nle = CCCC[C@H](N)C(=O)O; AEEA = NCCOCCOCC(=O)O; βAla = NCCC(=O)O

T1: human APJ receptor (human, UniProt P35414 1-380)
T1 sequence (looked up): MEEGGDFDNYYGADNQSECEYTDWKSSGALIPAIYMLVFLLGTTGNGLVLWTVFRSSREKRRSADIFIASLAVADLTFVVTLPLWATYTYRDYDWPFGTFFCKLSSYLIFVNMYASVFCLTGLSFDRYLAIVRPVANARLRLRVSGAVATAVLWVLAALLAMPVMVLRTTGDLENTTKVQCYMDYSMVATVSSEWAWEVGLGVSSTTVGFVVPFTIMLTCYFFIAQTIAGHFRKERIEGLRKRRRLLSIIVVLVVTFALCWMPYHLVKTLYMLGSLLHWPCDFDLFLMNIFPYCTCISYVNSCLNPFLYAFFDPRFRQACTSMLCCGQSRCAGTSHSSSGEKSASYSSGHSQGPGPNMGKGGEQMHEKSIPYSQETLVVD

T2: rat APJ receptor (rat, UniProt Q9JHG3 1-377)
T2 sequence (looked up): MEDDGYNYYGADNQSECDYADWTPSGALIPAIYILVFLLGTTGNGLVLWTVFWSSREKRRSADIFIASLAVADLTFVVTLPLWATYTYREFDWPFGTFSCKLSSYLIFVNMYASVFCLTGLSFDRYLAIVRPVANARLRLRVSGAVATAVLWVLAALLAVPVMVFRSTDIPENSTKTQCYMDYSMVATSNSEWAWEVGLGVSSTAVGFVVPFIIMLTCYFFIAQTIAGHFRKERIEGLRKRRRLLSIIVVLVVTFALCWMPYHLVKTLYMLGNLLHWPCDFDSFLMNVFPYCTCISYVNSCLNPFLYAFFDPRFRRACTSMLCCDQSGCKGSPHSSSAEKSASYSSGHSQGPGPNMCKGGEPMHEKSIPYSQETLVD

B1: Apelin polypeptide SEQ ID NO: 402 (peptide)
peptide: Tridecanoyl-[AC4Abu][AEEA][AEEA]QRP[NMeR]LSHKGP[Nle][Phe(4-Cl)]-OH
SMILES: CCCCCCCCCCCCC(=O)NCCC(C(=O)O)C(=O)NCCOCCOCC(=O)NCCOCCOCC(=O)N[C@@H](CCC(N)=O)C(=O)N[C@@H](CCCNC(=N)N)C(=O)N1CCC[C@H]1C(=O)N(C)[C@@H](CCCNC(=N)N)C(=O)N[C@@H](CC(C)C)C(=O)N[C@@H](CO)C(=O)N[C@@H](Cc1c[nH]cn1)C(=O)N[C@@H](CCCCN)C(=O)NCC(=O)N1CCC[C@H]1C(=O)N[C@@H](CCCC)C(=O)N[C@@H](Cc1ccc(Cl)cc1)C(=O)O
B2: Apelin polypeptide SEQ ID NO: 467 (peptide)
peptide: Tridecanoyl-[γGlu][AEEA][AEEA]QRP[NMeR]L[Gly(N-CH2CH2OH)]HKGP[Nle]P[Phe(4-Cl)]-OH
SMILES: CCCCCCCCCCCCC(=O)N[C@@H](CCC(=O)NCCOCCOCC(=O)NCCOCCOCC(=O)N[C@@H](CCC(N)=O)C(=O)N[C@@H](CCCNC(=N)N)C(=O)N1CCC[C@H]1C(=O)N(C)[C@@H](CCCNC(=N)N)C(=O)N[C@@H](CC(C)C)C(=O)N(CCO)CC(=O)N[C@@H](Cc1c[nH]cn1)C(=O)N[C@@H](CCCCN)C(=O)NCC(=O)N1CCC[C@H]1C(=O)N[C@@H](CCCC)C(=O)N1CCC[C@H]1C(=O)N[C@@H](Cc1ccc(Cl)cc1)C(=O)O)C(=O)O
B3: Apelin polypeptide SEQ ID NO: 464 (peptide)
peptide: Tridecanoyl-[γGlu][AEEA][AEEA]QRP[NMeR]L[βAla]HKGP[Nle]P[Phe(4-Cl)]-OH
SMILES: CCCCCCCCCCCCC(=O)N[C@@H](CCC(=O)NCCOCCOCC(=O)NCCOCCOCC(=O)N[C@@H](CCC(N)=O)C(=O)N[C@@H](CCCNC(=N)N)C(=O)N1CCC[C@H]1C(=O)N(C)[C@@H](CCCNC(=N)N)C(=O)N[C@@H](CC(C)C)C(=O)NCCC(=O)N[C@@H](Cc1c[nH]cn1)C(=O)N[C@@H](CCCCN)C(=O)NCC(=O)N1CCC[C@H]1C(=O)N[C@@H](CCCC)C(=O)N1CCC[C@H]1C(=O)N[C@@H](Cc1ccc(Cl)cc1)C(=O)O)C(=O)O
B4: Apelin polypeptide SEQ ID NO: 424 (peptide)
peptide: Tridecanoyl-[γGlu][AEEA][AEEA]QRP[NMeR]LSH[βAla]GP[Nle]P[Phe(4-Cl)]-OH
SMILES: CCCCCCCCCCCCC(=O)N[C@@H](CCC(=O)NCCOCCOCC(=O)NCCOCCOCC(=O)N[C@@H](CCC(N)=O)C(=O)N[C@@H](CCCNC(=N)N)C(=O)N1CCC[C@H]1C(=O)N(C)[C@@H](CCCNC(=N)N)C(=O)N[C@@H](CC(C)C)C(=O)N[C@@H](CO)C(=O)N[C@@H](Cc1c[nH]cn1)C(=O)NCCC(=O)NCC(=O)N1CCC[C@H]1C(=O)N[C@@H](CCCC)C(=O)N1CCC[C@H]1C(=O)N[C@@H](Cc1ccc(Cl)cc1)C(=O)O)C(=O)O
B5: Apelin polypeptide SEQ ID NO: 352 (peptide)
peptide: Tridecanoyl-[γGlu][AEEA][AEEA]QRP[NMeR]LSHKG[Oic][Nle]P[Phe(4-Cl)]-OH
SMILES: CCCCCCCCCCCCC(=O)N[C@@H](CCC(=O)NCCOCCOCC(=O)NCCOCCOCC(=O)N[C@@H](CCC(N)=O)C(=O)N[C@@H](CCCNC(=N)N)C(=O)N1CCC[C@H]1C(=O)N(C)[C@@H](CCCNC(=N)N)C(=O)N[C@@H](CC(C)C)C(=O)N[C@@H](CO)C(=O)N[C@@H](Cc1c[nH]cn1)C(=O)N[C@@H](CCCCN)C(=O)NCC(=O)N1[C@H](C(=O)N[C@@H](CCCC)C(=O)N2CCC[C@H]2C(=O)N[C@@H](Cc2ccc(Cl)cc2)C(=O)O)C[C@@H]2CCCC[C@@H]21)C(=O)O
B6: Apelin polypeptide SEQ ID NO: 425 (peptide)
peptide: Tridecanoyl-[γGlu][AEEA][AEEA]QRP[NMeR]LSHKGP[Nle][βAla][Phe(4-Cl)]-OH
SMILES: CCCCCCCCCCCCC(=O)N[C@@H](CCC(=O)NCCOCCOCC(=O)NCCOCCOCC(=O)N[C@@H](CCC(N)=O)C(=O)N[C@@H](CCCNC(=N)N)C(=O)N1CCC[C@H]1C(=O)N(C)[C@@H](CCCNC(=N)N)C(=O)N[C@@H](CC(C)C)C(=O)N[C@@H](CO)C(=O)N[C@@H](Cc1c[nH]cn1)C(=O)N[C@@H](CCCCN)C(=O)NCC(=O)N1CCC[C@H]1C(=O)N[C@@H](CCCC)C(=O)NCCC(=O)N[C@@H](Cc1ccc(Cl)cc1)C(=O)O)C(=O)O
B7: Apelin polypeptide SEQ ID NO: 423 (peptide)
peptide: Tridecanoyl-[AC4Abu][AEEA][AEEA]QRP[NMeR]LS[βAla]KGP[Nle]P[Phe(4-Cl)]-OH
SMILES: CCCCCCCCCCCCC(=O)NCCC(C(=O)O)C(=O)NCCOCCOCC(=O)NCCOCCOCC(=O)N[C@@H](CCC(N)=O)C(=O)N[C@@H](CCCNC(=N)N)C(=O)N1CCC[C@H]1C(=O)N(C)[C@@H](CCCNC(=N)N)C(=O)N[C@@H](CC(C)C)C(=O)N[C@@H](CO)C(=O)NCCC(=O)N[C@@H](CCCCN)C(=O)NCC(=O)N1CCC[C@H]1C(=O)N[C@@H](CCCC)C(=O)N1CCC[C@H]1C(=O)N[C@@H](Cc1ccc(Cl)cc1)C(=O)O
B8: Apelin polypeptide SEQ ID NO: 449 (peptide)
peptide: Tridecanoyl-[γGlu][AEEA][AEEA]QRP[NMeR]LSH[1Nal]GP[Nle]P[Phe(4-Cl)]-OH
SMILES: CCCCCCCCCCCCC(=O)N[C@@H](CCC(=O)NCCOCCOCC(=O)NCCOCCOCC(=O)N[C@@H](CCC(N)=O)C(=O)N[C@@H](CCCNC(=N)N)C(=O)N1CCC[C@H]1C(=O)N(C)[C@@H](CCCNC(=N)N)C(=O)N[C@@H](CC(C)C)C(=O)N[C@@H](CO)C(=O)N[C@@H](Cc1c[nH]cn1)C(=O)N[C@@H](Cc1cccc2ccccc12)C(=O)NCC(=O)N1CCC[C@H]1C(=O)N[C@@H](CCCC)C(=O)N1CCC[C@H]1C(=O)N[C@@H](Cc1ccc(Cl)cc1)C(=O)O)C(=O)O
B9: Apelin polypeptide SEQ ID NO: 470 (peptide)
peptide: Tridecanoyl-[γGlu][AEEA][AEEA]QRP[NMeR]LSHKGP[Nle]P[2Nal]-OH
SMILES: CCCCCCCCCCCCC(=O)N[C@@H](CCC(=O)NCCOCCOCC(=O)NCCOCCOCC(=O)N[C@@H](CCC(N)=O)C(=O)N[C@@H](CCCNC(=N)N)C(=O)N1CCC[C@H]1C(=O)N(C)[C@@H](CCCNC(=N)N)C(=O)N[C@@H](CC(C)C)C(=O)N[C@@H](CO)C(=O)N[C@@H](Cc1c[nH]cn1)C(=O)N[C@@H](CCCCN)C(=O)NCC(=O)N1CCC[C@H]1C(=O)N[C@@H](CCCC)C(=O)N1CCC[C@H]1C(=O)N[C@@H](Cc1ccc2ccccc2c1)C(=O)O)C(=O)O
B10: Apelin polypeptide SEQ ID NO: 448 (peptide)
peptide: Tridecanoyl-[γGlu][AEEA][AEEA]QRP[NMeR]LSHHGP[Nle]P[Phe(4-Cl)]-OH
SMILES: CCCCCCCCCCCCC(=O)N[C@@H](CCC(=O)NCCOCCOCC(=O)NCCOCCOCC(=O)N[C@@H](CCC(N)=O)C(=O)N[C@@H](CCCNC(=N)N)C(=O)N1CCC[C@H]1C(=O)N(C)[C@@H](CCCNC(=N)N)C(=O)N[C@@H](CC(C)C)C(=O)N[C@@H](CO)C(=O)N[C@@H](Cc1c[nH]cn1)C(=O)N[C@@H](Cc1c[nH]cn1)C(=O)NCC(=O)N1CCC[C@H]1C(=O)N[C@@H](CCCC)C(=O)N1CCC[C@H]1C(=O)N[C@@H](Cc1ccc(Cl)cc1)C(=O)O)C(=O)O
B11: Apelin polypeptide SEQ ID NO: 403 (peptide)
peptide: Tridecanoyl-[AC4Abu][AEEA][AEEA]QRP[NMeR]LSHKGP[Nle][2Nal]-OH
SMILES: CCCCCCCCCCCCC(=O)NCCC(C(=O)O)C(=O)NCCOCCOCC(=O)NCCOCCOCC(=O)N[C@@H](CCC(N)=O)C(=O)N[C@@H](CCCNC(=N)N)C(=O)N1CCC[C@H]1C(=O)N(C)[C@@H](CCCNC(=N)N)C(=O)N[C@@H](CC(C)C)C(=O)N[C@@H](CO)C(=O)N[C@@H](Cc1c[nH]cn1)C(=O)N[C@@H](CCCCN)C(=O)NCC(=O)N1CCC[C@H]1C(=O)N[C@@H](CCCC)C(=O)N[C@@H](Cc1ccc2ccccc2c1)C(=O)O

target: T1, human APJ receptor; experiment: cell-based or functional assay

EC50 Human APJ Receptor (GTPγS assay) [nM] | Binder
0.132 | XXXQRPRLXHKGPXPF ({TDA}[AC4Abu][Aeea][Aeea]QRP[NMeArg]L[Pra]HKGP[Nle]P[4-Cl-F]{COOH}) [Apelin polypeptide SEQ ID NO: 450]
0.957 | XXXQRPRLSHKGPXPF ({TDA}[AC4Abu][Aeea][Aeea]QrP[NMehArg][BLeu]SHKGP[Nle]P[4-Cl-F]{COOH}) [Apelin polypeptide SEQ ID NO: 384]
0.1 | B1
0.129 | B2
0.0542 | B3
4.15 | B4
0.0664 | XXXQRPRLSHKGPXXF ({TDA}[AC4Abu][Aeea][Aeea]QRP[NMeArg]LSHKGP[Nle][Pip][4-Cl-F]{COOH}) [Apelin polypeptide SEQ ID NO: 429]
0.108 | B5
0.0816 | XXXQRPRLSHKGPXPF ({TDA}[AC4Abu][Aeea][Aeea]QRP[NMeArg]LSHKGP[Nle][aMePro][4-Cl-F]{COOH}) [Apelin polypeptide SEQ ID NO: 401]
0.0937 | B6
0.645 | B7
0.394 | B8
0.0379 | B9
0.133 | B10
2.63 | B11

target: T2, rat APJ receptor; experiment: cell-based or functional assay

EC50 Rat APJ Receptor (GTPγS assay) [nM] | Binder
0.313 | XXXQRPRLXHKGPXPF ({TDA}[AC4Abu][Aeea][Aeea]QRP[NMeArg]L[Pra]HKGP[Nle]P[4-Cl-F]{COOH}) [Apelin polypeptide SEQ ID NO: 450]
4.35 | XXXQRPRLSHKGPXPF ({TDA}[AC4Abu][Aeea][Aeea]QrP[NMehArg][BLeu]SHKGP[Nle]P[4-Cl-F]{COOH}) [Apelin polypeptide SEQ ID NO: 384]
0.246 | B1
0.521 | B2
0.377 | B3
17.2 | B4
0.0935 | XXXQRPRLSHKGPXXF ({TDA}[AC4Abu][Aeea][Aeea]QRP[NMeArg]LSHKGP[Nle][Pip][4-Cl-F]{COOH}) [Apelin polypeptide SEQ ID NO: 429]
0.23 | B5
0.351 | XXXQRPRLSHKGPXPF ({TDA}[AC4Abu][Aeea][Aeea]QRP[NMeArg]LSHKGP[Nle][aMePro][4-Cl-F]{COOH}) [Apelin polypeptide SEQ ID NO: 401]
0.157 | B6
1.18 | B7
0.47 | B8
0.149 | B9
0.305 | B10
8.1 | B11
